Experimental data: the supplement of paper PMC7125110
± gives the standard error. Variants at the floor of the assay were thinned out.

B1: glmS ribozyme (parent)
chain: AUAAAAGCGCCAGAACUACAGAAAUGUAGUUGACGAGGAGGAGGUUUAUCGAAUUUUCGGCGGAUGCCUCCAAA

Columns and labels:
Conditions in all cases: with glucosamine-6-phosphate
glucosamine-6-phosphate [1] = variants of: B1; test: self-cleavage kobs at 40 uM GlcN6P; higher = faster cleavage; RNA array
In short: (§1)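 Tracking of barcoded ribozyme variants used a hybridised Cy3 probe at 37 °C, after in situ transcription by E. coli RNA polymerase on sequenced MiSeq chips. The flowed solution held 40 μM to 10 mM glucosamine-6-phosphate in HEPES/KCl/Mg(OAc)2 buffer, and imaging ran over ~14 h. kobs was taken from exponential decay fits of normalised per-tile medians, and kcat and KM from weighted Michaelis–Menten fits.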

glucosamine-6-phosphate [2] = variants of: B1; test: self-cleavage kobs at 160 uM GlcN6P; higher = faster cleavage; RNA array
In short: as §1

glucosamine-6-phosphate [3] = variants of: B1; test: self-cleavage kobs at 640 uM GlcN6P; higher = faster cleavage; RNA array
In short: as §1

glucosamine-6-phosphate [4] = variants of: B1; test: self-cleavage kobs at 10000 uM GlcN6P; higher = faster cleavage; RNA array
In short: as §1

glucosamine-6-phosphate [5] = variants of: B1; test: self-cleavage kobs at 2500 uM GlcN6P; higher = faster cleavage; RNA array
In short: as §1

Row | Variant | self-cleavage kobs at 40 uM GlcN6P (glucosamine-6-phosphate [1]) | self-cleavage kobs at 160 uM GlcN6P (glucosamine-6-phosphate [2]) | self-cleavage kobs at 640 uM GlcN6P (glucosamine-6-phosphate [3]) | self-cleavage kobs at 10000 uM GlcN6P (glucosamine-6-phosphate [4]) | self-cleavage kobs at 2500 uM GlcN6P (glucosamine-6-phosphate [5])
1 | C8A C67U | < 1e-05 s⁻¹ | < 1e-05 s⁻¹ | < 1e-05 s⁻¹ | < 1e-05 s⁻¹ | 
2 | C10A G29A C67G | 0.000103 ± 3.7e-05 s⁻¹ |  |  | 0.000102 ± 3e-05 s⁻¹ | 
3 | C68U C70U C71U | < 1e-05 s⁻¹ |  |  |  | 
4 | G38U U54G | < 1e-05 s⁻¹ |  |  |  | 
5 | C8A C11G U46G | < 1e-05 s⁻¹ |  |  | < 1e-05 s⁻¹ | 
6 | A39C U49A | < 1e-05 s⁻¹ | < 1e-05 s⁻¹ |  | < 1e-05 s⁻¹ | 
7 | C11U A36G G38C U69C | < 1e-05 s⁻¹ |  |  |  | 
8 | A14G G59C | < 1e-05 s⁻¹ |  | < 1e-05 s⁻¹ |  | 
9 | C34G G41A | < 1e-05 s⁻¹ | < 1e-05 s⁻¹ | < 1e-05 s⁻¹ | < 1e-05 s⁻¹ | 
10 | A15U G37C G38U | < 1e-05 s⁻¹ |  |  |  | 
11 | G32U A36G G41C A52U C67A | < 1e-05 s⁻¹ |  |  |  | 
12 | A53G U65C | 3.6e-05 ± 1.8e-05 s⁻¹ |  | 0.000302 ± 7.9e-05 s⁻¹ | 0.000644 ± 0.00014 s⁻¹ | 0.000224 ± 9.5e-05 s⁻¹
13 | U30G G60U | < 1e-05 s⁻¹ |  | < 1e-05 s⁻¹ | < 1e-05 s⁻¹ | 
14 | G29C A33C U69A | < 1e-05 s⁻¹ |  |  |  | 
15 | A33U G37U C50G U69A | 8.34e-05 ± 2.3e-05 s⁻¹ |  |  | 0.000105 ± 2.5e-05 s⁻¹ | 
16 | G7A U55C | < 1e-05 s⁻¹ | < 1e-05 s⁻¹ | < 1e-05 s⁻¹ |  | 
17 | C8A U30G | < 1e-05 s⁻¹ |  | < 1e-05 s⁻¹ | < 1e-05 s⁻¹ | < 1e-05 s⁻¹
18 | U31C G51C | < 1e-05 s⁻¹ |  |  | < 1e-05 s⁻¹ | < 1e-05 s⁻¹
19 | C10G A12G G59U C61G | < 1e-05 s⁻¹ |  |  |  | 
20 | G9A G51A | < 1e-05 s⁻¹ |  |  | < 1e-05 s⁻¹ | 
21 | C11A A33U U45A | < 1e-05 s⁻¹ |  | < 1e-05 s⁻¹ |  | < 1e-05 s⁻¹
22 | C16A G35U G43C C68U | < 1e-05 s⁻¹ | < 1e-05 s⁻¹ | < 1e-05 s⁻¹ |  | 
23 | C11A A12U A52U | < 1e-05 s⁻¹ |  |  |  | 
24 | G60A A64C | < 1e-05 s⁻¹ |  | < 1e-05 s⁻¹ |  | 
25 | C16G U65C C71G | < 1e-05 s⁻¹ |  |  | < 1e-05 s⁻¹ | 

Row | Variant | self-cleavage kobs at 40 uM GlcN6P (glucosamine-6-phosphate [1]) | self-cleavage kobs at 160 uM GlcN6P (glucosamine-6-phosphate [2]) | self-cleavage kobs at 640 uM GlcN6P (glucosamine-6-phosphate [3]) | self-cleavage kobs at 10000 uM GlcN6P (glucosamine-6-phosphate [4]) | self-cleavage kobs at 2500 uM GlcN6P (glucosamine-6-phosphate [5])
26 | G7A G13A | < 1e-05 s⁻¹ | < 1e-05 s⁻¹ | < 1e-05 s⁻¹ | < 1e-05 s⁻¹ | 
27 | A36C A48G | < 1e-05 s⁻¹ |  |  | < 1e-05 s⁻¹ | 
28 | U47C G60U | < 1e-05 s⁻¹ | < 1e-05 s⁻¹ | < 1e-05 s⁻¹ |  | < 1e-05 s⁻¹
29 | G38U C61A C67U | 8.86e-05 ± 3e-05 s⁻¹ |  |  | 8.02e-05 ± 2.6e-05 s⁻¹ | 
30 | G40U G51A | < 1e-05 s⁻¹ |  | < 1e-05 s⁻¹ | < 1e-05 s⁻¹ | < 1e-05 s⁻¹
31 | U55A C68U | 0.000668 ± 0.00012 s⁻¹ | 0.000841 ± 0.00019 s⁻¹ | 0.00148 ± 0.00045 s⁻¹ | 0.0158 ± 0.004 s⁻¹ | 0.00477 ± 0.00099 s⁻¹
32 | G59A G60U C61A | < 1e-05 s⁻¹ |  | < 1e-05 s⁻¹ |  | < 1e-05 s⁻¹
33 | G35U C61A | < 1e-05 s⁻¹ |  | < 1e-05 s⁻¹ | < 1e-05 s⁻¹ | < 1e-05 s⁻¹
34 | A6C G9A | < 1e-05 s⁻¹ |  |  | < 1e-05 s⁻¹ | 
35 | A52U G63C A64U | < 1e-05 s⁻¹ |  |  |  | < 1e-05 s⁻¹
36 | U30G G38U A39U G66A | < 1e-05 s⁻¹ |  |  | < 1e-05 s⁻¹ | 
37 | U31G U55A | 0.000446 ± 7.1e-05 s⁻¹ | 0.00128 ± 0.00045 s⁻¹ | 0.00221 ± 0.00041 s⁻¹ | 0.0118 ± 0.0023 s⁻¹ | 0.00465 ± 0.0011 s⁻¹
38 | G38U G51C | < 1e-05 s⁻¹ |  | < 1e-05 s⁻¹ |  | < 1e-05 s⁻¹
39 | G37U G40A G59U | < 1e-05 s⁻¹ |  |  | < 1e-05 s⁻¹ | < 1e-05 s⁻¹
40 | A15G U47A | 0.000718 ± 0.00011 s⁻¹ |  |  | 0.03 ± 0.0073 s⁻¹ | 0.0116 ± 0.0042 s⁻¹
41 | A15G A64U C68U | < 1e-05 s⁻¹ |  |  |  | 
42 | A15C G32C A64U C67A | < 1e-05 s⁻¹ |  |  |  | 
43 | G40A U47C G62A A64C C70U | < 1e-05 s⁻¹ |  |  | < 1e-05 s⁻¹ | < 1e-05 s⁻¹
44 | U49C C61A C70U | < 1e-05 s⁻¹ |  |  | < 1e-05 s⁻¹ | 
45 | A48G C50G C61G | 0.000172 ± 6.6e-05 s⁻¹ |  |  | 0.000127 ± 3.7e-05 s⁻¹ | 
46 | C58G C68G | 3.25e-05 ± 1.1e-05 s⁻¹ | 6.63e-05 ± 1.4e-05 s⁻¹ | 9.11e-05 ± 1.1e-05 s⁻¹ | 1.82e-05 ± 7.1e-06 s⁻¹ | 9.87e-05 ± 1.7e-05 s⁻¹
47 | G9C G40A C50A | < 1e-05 s⁻¹ |  |  | < 1e-05 s⁻¹ | 
48 | G44C U46A G51A | < 1e-05 s⁻¹ |  |  |  | 
49 | G32U G40U U46C U54G C70G | < 1e-05 s⁻¹ |  |  |  | 
50 | G44A C68G | < 1e-05 s⁻¹ | < 1e-05 s⁻¹ | < 1e-05 s⁻¹ | < 1e-05 s⁻¹ | < 1e-05 s⁻¹
